Assay results reported in patent US12448610B2, “Preparation of glycosyltransferase UGT76G1 mutant and use thereof” (CAS Center for Excellence in Molecular Plant Sciences, priority 2019, dated 2025).
Where a chain is given by its changes, count along the chain named. Names and notes keep the numbering of the source.

B1: wild-type UGT76G1: wild-type glycosyltransferase UGT76G1 derived from Stevia rebaudiana, amino acid sequence of SEQ ID NO: 1 (protein, listed as Stevia rebaudiana)
chain: MENKTETTVRRRRRIILFPVPFQGHINPILQLANVLYSKGFSITIFHTNFNKPKTSNYPHFTFRFILDNDPQDERISNLPTHGPLAGMRIPIINEHGADELRRELELLMLASEEDEEVSCLITDALWYFAQSVADSLNLRRLVLMTSSLFNFHAHVSLPQFDELGYLDPDDKTRLEEQASGFPMLKVKDIKSAYSNWQILKEILGKMIKQTKASSGVIWNSFKELEESELETVIREIPAPSFLIPLPKHLTASSSSLLDHDRTVFQWLDQQPPSSVLYVSFGSSSEVDEKDFLEIARGLVDSKQSFLWVVRPGFVKGSTWVEPLPDGFLGERGRIVKWVPQQEVLAHGAIGAFWTHSGWNSTLESVCEGVPMIFSDFGLDQPLNARYMSDVLKVGVYLENGWERGEIANAIRRVMVDEEGEYIRQNARVLKQKADVSLMKGGSSYESLESLVSYISSL
B2: G87F: glycosyltransferase UGT76G1 mutant, mutation of G at 87th to F (SEQ ID NO: 2) (protein)
chain: B1 chain with G87F
modifications: Variant
B3: L379W: glycosyltransferase UGT76G1 mutant, mutation of L at 379th to W (SEQ ID NO: 5) (protein)
chain: B1 chain with L379W
modifications: Variant
B4: L204F: glycosyltransferase UGT76G1 mutant, mutation of L at 204th to F (SEQ ID NO: 4) (protein)
chain: B1 chain with L204F
modifications: Variant
B5: I199F: glycosyltransferase UGT76G1 mutant, mutation of I at 199th to F (SEQ ID NO: 3) (protein)
chain: B1 chain with I199F
modifications: Variant

How the values were obtained:
Format in all cases: biochemical
[1] = Enzymic reaction of UGT76G1 wild-type and mutants in vitro, substrate isoorientin, products detected by HPLC; settings: for conversion efficiency of isoorientin (compound 1): HPLC analysis of FIG. 1; for conversion efficiency of isoorientin (compound 1) / glycosylation efficiency: in words; for yield of compound 2 as compared with the wild type / yield of compound 3 as compared with the wild type: substrate isoorientin 250 μM, 5 μg protein, 1.5 mM UDP-glucose, 37° C. overnight, HPLC peak area, 100% for the wild type; for glycosylation efficiency: substrate isoorientin, versus wild type
Experimental: The enzyme activity of the glycosyltransferase UGT76G1 mutant can be detected by a technique known in the art. In a specific example of the present invention, the enzyme reaction system with the same conditions is used to detect the enzyme activity of different mutants in vitro. After the reaction, the product was detected by HPLC. The change of a mutant's catalytic activity was analyzed by comparing the relative conversion ratio of the flavonoid isoorientin by the mutant and the wild-type protein.
(§1) The enzymic reaction system (50 μL) includes: 5 μg protein, 1.5 mM UDP-glucose, 250 μM glycosyl acceptor substrate isoorientin, orientin, apigenin or luteolin, and Buffer A (20 mM Tris-HCl, pH=8.0, 100 mM NaCl). The reaction of each mutant protein for the same substrate was repeated three times. Reaction conditions: 37° C. overnight. The reaction was quenched with an equal volume of methanol. After vigorous shaking, the reaction was centrifuged at 12000 rpm for 30 min. The supernatant was used for HPLC detection. Detection method: mobile phase A (acetonitrile, containing 0.1% formic acid)—mobile phase B (water, containing 0.1% formic acid) gradient elution. Chromatographic conditions: gradient elution from initial 5% A to 50% A within 11 min, elution at 100% A for 4 min, and back to 5% A within 1 min for equilibration for 4 min. The peak area of the catalytic product of the mutant was calculated and compared with the peak area of the catalytic product of wild-type UGT76G1.

[2] = Enzymic reaction of UGT76G1 wild-type and mutants in vitro, substrate orientin, products detected by HPLC; settings: in words
Experimental: as §1

[3] = Enzymic reaction of UGT76G1 wild-type and mutants in vitro, substrate apigenin, products detected by HPLC; settings: HPLC analysis of FIG. 7; compared with wild-type (WT) or mutants I90L, I199L; in words
Experimental: as §1

[4] = Enzymic reaction of UGT76G1 wild-type and mutants in vitro, substrate luteolin, products detected by HPLC; settings: HPLC analysis of FIG. 8; compared with wild-type (WT) or mutants I90L, I199L; in words
Experimental: as §1

[5] = substrate orientin, versus wild type

Molecule	conversion efficiency of isoorientin (compound 1) [1]	conversion rate for orientin (compound 4) ([2]; HPLC analysis of FIG. 5)	glycosylation products of apigenin (compound 7) [3]	yield of compound 2 as compared with the wild type [1] [%]	yield of compound 3 as compared with the wild type [1] [%]	glycosylation efficiency [1]	glycosylation products of luteolin (compound 8) [4]	production efficiency of product 6 [2, 5]	production efficiency of product 5 [2, 5]
B1	low	a certain conversion rate							
B2	relatively the highest		significantly different from those converted by wild-type	1381	1235	significantly increased	significantly different from those converted by wild-type		
B3								can increase	
B4			significantly different from those converted by wild-type	285	159	significantly increased	significantly different from those converted by wild-type		can increase
B5				799	278	significantly increased			
